According to patent publication US20240254229A1 (Molecular Partners, published 2024):

T1: human scCD3εγ (scCD3εγ_Avi-Bio) (human, biotin on the C-terminal Avi-tag (in vitro, BirA) where the biotinylated form was used)
T1 construct: Used for all SPR and HTRF results on human CD3; also called recombinant human CD3; human CD3
T1 chain: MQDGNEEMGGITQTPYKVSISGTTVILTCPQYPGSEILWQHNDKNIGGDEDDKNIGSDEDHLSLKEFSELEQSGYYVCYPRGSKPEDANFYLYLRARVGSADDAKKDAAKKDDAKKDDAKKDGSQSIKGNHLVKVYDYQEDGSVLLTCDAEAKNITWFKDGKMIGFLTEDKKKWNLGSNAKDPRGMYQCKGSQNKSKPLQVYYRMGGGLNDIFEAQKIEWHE

T2: biotinylated extracellular domain of human CD123 (SEQ ID NO: 88), Fc and Avi tagged (human, UniProt P26951 19-303, biotinylated with BirA-GST (Avi tag))
T2 construct: also called hCD123
T2 sequence: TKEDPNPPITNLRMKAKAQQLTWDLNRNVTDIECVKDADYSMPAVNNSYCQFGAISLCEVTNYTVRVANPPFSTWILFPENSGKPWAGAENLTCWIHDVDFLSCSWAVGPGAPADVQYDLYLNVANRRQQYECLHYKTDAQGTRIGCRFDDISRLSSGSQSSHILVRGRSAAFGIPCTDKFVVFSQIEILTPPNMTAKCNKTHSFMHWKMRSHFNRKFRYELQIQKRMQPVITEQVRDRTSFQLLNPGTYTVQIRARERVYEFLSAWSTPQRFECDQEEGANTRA

T3: extracellular domain of human CD70 (SEQ ID NO: 89), hCD70-Fc-trimer, ACRO Biosystems (human, UniProt P32970 52-193, chemically biotinylated where the biotinylated form was used)
T3 construct: also called human CD70-Fc-trimer; Bio.CD70
T3 sequence: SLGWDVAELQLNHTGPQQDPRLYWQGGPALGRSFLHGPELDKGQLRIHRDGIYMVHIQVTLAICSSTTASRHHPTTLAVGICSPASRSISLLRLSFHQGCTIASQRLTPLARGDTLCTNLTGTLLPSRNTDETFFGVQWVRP

B1: DARPin® protein #30 (designed binder)
chain: DLGYKLLQAAYDGQLDEVRILLKAGADVNAKDSRGQTPLHYAASIGHLEIVEVLLKAGADVNAKDDHGWTPLHLAAWSGHLEIVEVLLKAGADVNAQDQEGTTPADLAAVQGHQDIAEVLQKAAGSPTPTPTTPTPTPTTPTPTPTGSDLGKKLLEAALEGQDDEVRELLKAGADVNAKDQEGYTPLHLAAALGHLEIVEVLLKAGADVNAKDSIGRTPLHLAAYKGHLEIVEVLLKAGADVNAQDLLGETPADLAAEQGHEDIAEVLQKAAGSPTPTPTTPTPTPTTPTPTPTGSDLGVKLLRAAFHGQDDEVRILLAAGADVNAKDTDGETPLHYAAQFGHLEIVEVLLKAGADVNAKDAYGATPLHWAAWHGHLEIVEVLLKAGADVNAQDVSGATPADLAAKVGHEDIAEVLQKAAGSPTPTPTTPTPTPTTPTPTPTGSDLGQKLLEAAWAGQDDEVRELLKAGADVNAKNSRGWTPLHTAAQTGHLEIFEVLLKAGADVNAKDDKGVTPLHLAAALGHLEIVEVLLKAGADVNAQDSWGTTPADLAAKYGHEDIAEVLQKAA
notes: CD70-CD123-CD33-CD3; not shown: His-tag implied by anti-penta-His detection
B2: DARPin® protein #28 (designed binder)
chain: DLGYKLLQAAYDGQLDEVRILLKAGADVNAKDSRGQTPLHYAASIGHLEIVEVLLKAGADVNAKDDHGWTPLHLAAWSGHLEIVEVLLKAGADVNAQDQEGTTPADLAAVQGHQDIAEVLQKAAGSPTPTPTTPTPTPTTPTPTPTGSDLGWKLLLAASRGQDDEVRILLAAGADVNAKDIDEGYTPLHIAAYYGHLEIVEVLLKAGADVNAKDRYGKTPLHLAAISGHEDIAEVLLKAGADVNAQDDKGDTPADLAADYGHEDIAEVLQKAAGSPTPTPTTPTPTPTTPTPTPTGSDLGQKLLEAAWAGQDDEVRELLKAGADVNAKNSRGWTPLHTAAQTGHLEIFEVLLKAGADVNAKDDKGVTPLHLAAALGHLEIVEVLLKAGADVNAQDSWGTTPADLAAKYGHEDIAEVLQKAA
notes: CD70-CD33-CD3; not shown: His-tag implied by anti-penta-His detection
B3: DARPin® protein #53 (designed binder)
chain: MRGSHHHHHHDLGKKLLEAARAGQDDEVRELLKAGADVNAKDYFSHTPLHLAARNGHLKIVEVLLKAGADVNAKDFAGKTPLHLAAADGHLEIVEVLLKAGADVNAQDIFGKTPADIAADAGHEDIAEVLQKAAGSPTPTPTTPTPTPTTPTPTPTGSDLGYKLLQAAYDGQLDEVRILLKAGADVNAKDSRGQTPLHYAASIGHLEIVEVLLKAGADVNAKDDHGWTPLHLAAWSGHLEIVEVLLKAGADVNAQDQEGTTPADLAAVQGHQDIAEVLQKAAGSPTPTPTTPTPTPTTPTPTPTGSDLGKKLLEAALEGQLDEVRELLKAGADVNAKDQEGYTPLHLAAALGHLEIVEVLLKAGADVNAKDSIGRTPLHLAAYKGHLEIVEVLLKAGADVNAQDLLGETPADLAAEQGHQDIAEVLQKAAGSPTPTPTTPTPTPTTPTPTPTGSDLGVKLLRAAVHGQLDEVRILLKAGADVNAKDTDGETPLHYAAQFGHLEIVEVLLKAGADVNAKDAYGATPLHWAAWHGHLEIVEVLLKAGADVNAQDVSGATPADLAAKVGHQDIAEVLQKAAGSPTPTPTTPTPTPTTPTPTPTGSDLGQKLLEAAWAGQDDEVRELLKAGADVNAKNSRGWTPLHTAAQTGHLEIFEVLLKAGADVNAKDDKGVTPLHLAAALGHLEIVEVLLKAGADVNAQDSWGTTPADLAAKYGHEDIAEVLQKAA
notes: HSA-CD70-CD123-CD33-CD3
B4: DARPin® protein #54 (designed binder)
chain: MRGSHHHHHHDLGKKLLEAARAGQDDEVRELLKAGADVNAKDYFSHTPLHLAARNGHLKIVEVLLKAGADVNAKDFAGKTPLHLAAADGHLEIVEVLLKAGADVNAQDIFGKTPADIAADAGHEDIAEVLQKAAGSPTPTPTTPTPTPTTPTPTPTGSDLGKKLLEAARAGQDDEVRELLKAGADVNAKDYFSHTPLHLAARNGHLKIVEVLLKAGADVNAKDFAGKTPLHLAAADGHLEIVEVLLKAGADVNAQDIFGKTPADIAADAGHEDIAEVLQKAAGSPTPTPTTPTPTPTTPTPTPTGSDLGYKLLQAAYDGQLDEVRILLKAGADVNAKDSRGQTPLHYAASIGHLEIVEVLLKAGADVNAKDDHGWTPLHLAAWSGHLEIVEVLLKAGADVNAQDQEGTTPADLAAVQGHQDIAEVLQKAAGSPTPTPTTPTPTPTTPTPTPTGSDLGKKLLEAALEGQLDEVRELLKAGADVNAKDQEGYTPLHLAAALGHLEIVEVLLKAGADVNAKDSIGRTPLHLAAYKGHLEIVEVLLKAGADVNAQDLLGETPADLAAEQGHQDIAEVLQKAAGSPTPTPTTPTPTPTTPTPTPTGSDLGVKLLRAAVHGQLDEVRILLKAGADVNAKDTDGETPLHYAAQFGHLEIVEVLLKAGADVNAKDAYGATPLHWAAWHGHLEIVEVLLKAGADVNAQDVSGATPADLAAKVGHQDIAEVLQKAAGSPTPTPTTPTPTPTTPTPTPTGSDLGQKLLEAAWAGQDDEVRELLKAGADVNAKNSRGWTPLHTAAQTGHLEIFEVLLKAGADVNAKDDKGVTPLHLAAALGHLEIVEVLLKAGADVNAQDSWGTTPADLAAKYGHEDIAEVLQKAA
notes: HSA-HSA-CD70-CD123-CD33-CD3

Experiments:
[1] = biological target: T4, human CD3 on primary human pan-T cells (human, UniProt P07766 23-207; P09693 23-182; P04234 22-171; P20963 22-164); assay: Mirrorball cytometry on primary human pan-T cells, 600 µM HSA
T4 construct: whole, on cells; Native complex on T cells isolated from PBMC; also called CD3 on Pan-T cells
Procedure: The determination of T cell binding was performed with primary human T cells using Mirrorball laser scanning imaging cytometry. Therefore, primary T cells were isolated from human peripheral blood mononuclear cells (PBMCs) using a pan-T cell purification kit (Miltenyi Biotec). A titration of DARPin® protein #27, DARPin® protein #28 and DARPin® protein #29 and DARPin® protein #30 were incubated with 50′000 pan-T cells per well in presence of 600 μM human serum albumin (to mimic physiological serum concentration) for 30 minutes at 4° C. Two benchmark T-cell engagers, AMG330 and flotetuzumab were applied as controls, targeting CD33 or CD123. After washing, CD3 binding was detected by 1:100-diluted anti-penta-His Alexa Fluor 488 antibody (Qiagen). After 30 min incubation at 4° C., cells were washed and resuspended in Cytofix fixation buffer (BD Biosciences) and counterstained by 5 μM DRAQ5 (Abcam) for 15 min at RT. Median of mean fluorescence intensities of Alexa Fluor 488 binding on far-red counterstained cells were measured by Mirrorball using Cellista software (SPT Labtech) and data was plotted using GraphPad Prism 8.

[2] = biological target: T1, human scCD3εγ (scCD3εγ_Avi-Bio); assay: SPR (ProteOn), DARPin on GLC chip, scCD3εγ as analyte
Procedure: Similarly, the binding affinities of two purified ankyrin repeat proteins on recombinant human CD3 target were analyzed as described before. Briefly, DARPin® protein #53, DARPin® protein #54 in NaOAc pH 4.5 was coated on a GLC chip (BioRad) to a level of around 790-1500 resonance units (RU). The interaction of ankyrin repeat protein and human CD3 was then measured by injecting 300 μl running buffer (PBS, pH 7.4 containing 0.005% Tween 20®) containing serial dilutions of human scCD3εγ (56.4 μM), was diluted in PBST (PBS, pH 7.4 containing 0.005% Tween 20®) and covering a concentration range between 300 nM and 19 nM for multi-trace SPR measurements, followed by a running buffer flow for at least 10 minutes at a constant flow rate of 60 μl/min (off-rate measurement).
The regeneration was performed using 30 μl of 10 mM Glycine pH 2. The signals (i.e. resonance unit (RU) values) of the interspots and a reference injection (i.e. injection of running buffer only) were subtracted from the RU traces obtained after injection of CD3 (double-referencing). Binding parameters (KD, on-rate, off-rate) against CD3 were determined by using a standard Langmuir fit model.

[3] = biological target: T5, biotinylated extracellular domain of human CD33 (SEQ ID NO: 87), Fc and Avi tagged (human, UniProt P20138 18-259, biotinylated with BirA-GST (Avi tag)); assay: SPR (ProteOn XPR36), target on GLC chip, DARPin as analyte
T5 construct: also called hCD33; human target hCD33

[4] = biological target: T2, biotinylated extracellular domain of …; assay: as above
human serum albumin = biological target: T6, human serum albumin (human, UniProt P02768 25-609); assay: as above
T6 construct: also called HSA; SA

[5] = biological target: T3, extracellular domain of human CD70 (SEQ …); assay: as above

T6 sequence (P02768 25-609 limits assumed): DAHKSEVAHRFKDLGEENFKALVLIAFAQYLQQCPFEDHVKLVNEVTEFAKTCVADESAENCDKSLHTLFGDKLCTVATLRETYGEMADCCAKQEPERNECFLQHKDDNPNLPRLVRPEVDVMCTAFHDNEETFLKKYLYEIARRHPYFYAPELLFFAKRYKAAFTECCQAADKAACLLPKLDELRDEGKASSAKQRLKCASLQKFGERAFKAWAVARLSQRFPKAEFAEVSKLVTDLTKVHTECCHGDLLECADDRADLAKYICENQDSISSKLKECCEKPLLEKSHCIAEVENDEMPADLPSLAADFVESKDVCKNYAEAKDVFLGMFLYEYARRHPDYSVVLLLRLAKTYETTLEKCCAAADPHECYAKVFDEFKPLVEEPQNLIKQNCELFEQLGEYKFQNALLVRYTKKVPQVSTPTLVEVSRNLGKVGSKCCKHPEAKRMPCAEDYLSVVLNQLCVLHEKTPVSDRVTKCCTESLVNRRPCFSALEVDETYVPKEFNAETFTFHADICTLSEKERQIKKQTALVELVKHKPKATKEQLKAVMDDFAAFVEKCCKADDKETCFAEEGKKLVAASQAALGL
T5 sequence (P20138 18-259 R69G): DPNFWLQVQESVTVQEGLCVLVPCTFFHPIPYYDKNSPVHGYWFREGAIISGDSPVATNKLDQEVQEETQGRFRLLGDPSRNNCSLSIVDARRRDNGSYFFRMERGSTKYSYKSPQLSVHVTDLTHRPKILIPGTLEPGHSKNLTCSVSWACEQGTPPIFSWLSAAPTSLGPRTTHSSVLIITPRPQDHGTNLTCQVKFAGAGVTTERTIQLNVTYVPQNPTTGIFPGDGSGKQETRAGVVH
T4 sequence (P07766 23-207, chain 1 of 4): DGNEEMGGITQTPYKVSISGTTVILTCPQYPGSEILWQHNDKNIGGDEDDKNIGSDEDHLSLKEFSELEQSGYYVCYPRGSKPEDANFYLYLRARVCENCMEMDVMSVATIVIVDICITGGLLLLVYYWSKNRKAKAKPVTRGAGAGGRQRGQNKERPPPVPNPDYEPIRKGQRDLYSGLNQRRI
T4 sequence (P09693 23-182, chain 2 of 4): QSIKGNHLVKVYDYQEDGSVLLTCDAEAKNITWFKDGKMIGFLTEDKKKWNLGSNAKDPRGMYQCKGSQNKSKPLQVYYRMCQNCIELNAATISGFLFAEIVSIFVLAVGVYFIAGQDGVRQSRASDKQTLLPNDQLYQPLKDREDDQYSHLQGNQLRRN
T4 sequence (P04234 22-171, chain 3 of 4): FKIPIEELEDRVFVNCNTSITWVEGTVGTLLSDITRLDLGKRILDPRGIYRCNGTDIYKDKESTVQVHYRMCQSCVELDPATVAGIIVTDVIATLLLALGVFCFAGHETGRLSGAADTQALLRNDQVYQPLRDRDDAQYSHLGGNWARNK
T4 sequence (P20963 22-164, chain 4 of 4): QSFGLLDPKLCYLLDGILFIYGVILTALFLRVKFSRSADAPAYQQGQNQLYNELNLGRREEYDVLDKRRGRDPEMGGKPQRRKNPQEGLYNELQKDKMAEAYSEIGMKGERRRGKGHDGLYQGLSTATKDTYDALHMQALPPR

Row | Binder | EC50 [1] [nM] | Kd [2] [nM] | koff [2] [s⁻¹] | kon [2] [M⁻¹ s⁻¹] | Kd [3] [nM] | Kd [4] [nM] | Kd (human serum albumin) [nM] | Kd [5] [nM]
1 | B1 | 1.8 |  |  |  |  |  |  | 
2 | B2 | 1.41 |  |  |  |  |  |  | 
3 | B3 |  | 139 | 0.0065 | 48000 | 12 | 8 | 24 | 0.7
4 | B4 |  | 129 | 0.0067 | 52000 | 8.2 | 33 | 1.2 | 0.61
